# According to publication PMC5388508:
# Key:
# [1] = target: integrin αIIbβ3 of human platelets (human (endogenous in platelets)) (UniProt P08514)
# [2] = target: integrin αIIbβ3 of human platelets (human (endogenous in platelets)) (UniProt P08514); assay: flow cytometry on cells
substance,measurement,setting,value
"Rhodostomin (Rho), recombinant, ^48PRGDMP-^65PRYH (natural protein)",IC50 of inhibition of platelet aggregation,[1],83.2 nM
same,IC50,[2],90.8 nM
